Source: the supplement of paper PMC10567573

B1: SLC19A2 (parent)
chain: FHHIPSTCQRVNGIKVQNGGIVTD
B2: OAS1 (parent)
chain: LQLGEGVEFDVLPAFDALGQLTGG

Variants of: B1
Experiment: protein stability index of a GFP-peptide fusion (GPS, HEK-293T) (PSI 1-6); higher = more stable
Details: c terminus: a fixed tail appended
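Further: lentivirally expressed fusions sorted by FACS into six bins by GFP to DsRed ratio, PSI derived from sequencing read proportions per bin multiplied by bin number.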

Variant | protein stability index
Q9S | 1.67
Q9M | 2.27
Q9G | 1.68
Q9N | 2.08
Q9V | 2.04
Q9H | 1.78
Q9R | 1.77
Q9L | 2.92
Q9P | 1.81
Q9I | 1.65
Q9C | 2.13
Q9E | 2.29
Q9T | 1.84
Q9A | 1.46
Q9K | 1.55
Q9F | 2.35
Q9D | 1.8
R10E | 2.46
R10N | 1.6
R10Y | 2.07
R10D | 2.65
R10P | 1.78
R10G | 2.23
R10I | 1.98

Variant | protein stability index
R10M | 1.67
R10Q | 1.87
R10K | 1.91
R10V | 2.46
R10T | 1.99
R10L | 2.46
R10A | 1.81
R10S | 1.89
R10H | 2.5
R10C | 2.36
R10F | 1.7
R10W | 2.97
Q17G | 1.87
Q17I | 1.6
Q17S | 2.72
Q17D | 2.05
Q17K | 2.66
Q17Y | 2.31
Q17F | 1.41
Q17E | 2.28
Q17H | 2.08
Q17C | 2.37
Q17R | 2.81
Q17L | 1.34

Variant | protein stability index
Q17M | 1.09
Q17P | 2.35
Q17A | 1.89
Q17W | 1.62
Q17T | 1.67
Q17V | 2.1
Q17N | 2.17
K15G | 2.38
K15I | 2.14
K15E | 2.22
K15M | 1.64
K15P | 2.33
K15V | 2.14
K15R | 2.2
K15F | 2.49
K15C | 2.2
K15H | 2.37
K15D | 2.57
K15N | 2.05
K15L | 2.15
K15Q | 2.47
K15Y | 2.47
K15A | 1.91
K15S | 2.24

Variant | protein stability index
K15T | 2.19
G20P | 2.2
G20F | 1.65
G20S | 2.34
G20M | 2.18
G20Q | 1.8
G20L | 1.64
G20H | 2.19
G20N | 2.29
G20R | 1.73
G20D | 2.2
G20E | 1.95
G20V | 1.5
G20K | 1.87
G20C | 1.8
G20I | 1.9
G20T | 1.76
G20A | 1.59
G13H | 1.64
G13P | 1.85
G13K | 2.5
G13D | 2
G13Q | 2.73
G13R | 2.21

Variant | protein stability index
G13A | 1.77
G13S | 1.97
G13C | 1.89
G13T | 2.28
G13N | 2.01
G13M | 2.08
G13I | 1.75
G13L | 1.58
G13V | 1.73
G13F | 1.71
G13E | 2.13
G13Y | 2.19
N12E | 2.04
N12F | 1.74
N12Y | 1.78
N12S | 2.36
N12C | 1.84
N12Q | 2.43
N12P | 2.05
N12T | 1.78
N12V | 1.82
N12W | 1.01
N12H | 1.89
N12D | 2.86

Variant | protein stability index
N12I | 1.42
N12A | 1.84
N12K | 2.22
N12L | 2.1
N12R | 2.47
N12G | 2.07
N18S | 1.92
N18E | 2.01
N18Y | 1.63
N18P | 2.08
N18A | 1.77
N18C | 1.52
N18G | 3.96
N18D | 1.81
N18I | 2.94
N18K | 1.68
N18L | 1.28
N18F | 2.04
N18R | 2.14
N18M | 1.98
N18Q | 1.48
N18T | 1.65
V22T | 2.52
V22D | 2.42

Variant | protein stability index
V22R | 2.19
V22L | 2.2
V22Q | 2.18
V22C | 1.61
V22I | 1.73
V22Y | 1.47
V22A | 2.44
V22H | 2.01
V22F | 3.33
V22G | 1.56
V22S | 2.23
V22N | 2.23
V22E | 1.84
V22P | 2.62
V22M | 1.52
V22W | 1.91
V22K | 1.77
V16I | 1.51
V16K | 2.02
V16L | 1.79
V16A | 2.13
V16Q | 1.56
V16H | 2.15
V16D | 2.31

Variant | protein stability index
V16T | 1.89
V16S | 2.26
V16M | 2.44
V16W | 2.14
V16P | 2.14
V16R | 1.93
V16G | 2.13
V16N | 1.96
V16E | 1.49
V16Y | 1.95
V16C | 2.2
V16F | 1.6
I21G | 2.2
I21H | 2.09
I21R | 2.43
I21E | 2.15
I21A | 2.46
I21L | 1.61
I21T | 2.19
I21P | 1.6
I21F | 1.83
I21S | 1.85
I21Q | 2.16
I21C | 1.79

Variant | protein stability index
I21D | 2.24
I21N | 3.07
I21K | 3.06
I21Y | 2.18
I21M | 2.03
D24T | 1.7
D24K | 2.64
D24P | 1.72
D24M | 2.38
D24H | 2.11
D24Y | 3.21
D24Q | 1.94
D24I | 2.06
D24E | 2.06
D24N | 2.47
D24A | 2.16
D24C | 1.5
D24R | 1.89
D24S | 2.12
D24G | 1.16
C8V | 2.3
C8Q | 1.97
C8P | 1.94
C8Y | 1.86

Variant | protein stability index
C8N | 2.69
C8K | 1.83
C8S | 2.27
C8T | 2.84
C8F | 1.97
C8E | 2.18
C8R | 3.48
C8I | 1.99
C8M | 2.39
C8D | 2.38
C8L | 2.3
C8W | 1.93
C8G | 2.07
C8H | 2.13
I14Q | 2.14
I14S | 2.62
I14C | 1.72
I14E | 2.69
I14D | 1.88
I14F | 2.32
I14A | 2.2
I14L | 2
I14Y | 1.47
I14K | 2.19

Variant | protein stability index
I14H | 2.31
I14G | 2.6
I14T | 2.17
I14P | 2.19
I14W | 2.7
I14N | 2.07
I14M | 2.23
I14R | 2.18
I14V | 1.69
T23K | 2.11
T23C | 2.27
T23L | 1.95
T23E | 1.85
T23V | 1.67
T23N | 1.86
T23A | 2.4
T23R | 4.73
T23P | 1.89
T23Q | 2.44
T23G | 1.67
T23I | 1.57
T23M | 2.15
T23F | 1.81
T23S | 2.18

Variant | protein stability index
T23Y | 1.75
T23H | 3.31
T23D | 2.53
T23W | 1.45
G19A | 1.65
G19S | 1.51
G19R | 1.65
G19D | 2.36
G19H | 1.59
G19T | 2.78
G19P | 2.04
G19W | 1.62
G19V | 2.32
G19E | 2.81
G19C | 2.34
G19I | 3.46
G19F | 2.25
G19K | 1.94
G19Y | 1.74
G19Q | 2.16
G19M | 1.27
G19N | 2.37
G19L | 1.72
V11E | 2.08

Variant | protein stability index
V11L | 1.59
V11I | 2.43
V11Y | 2.09
V11W | 1.44
V11Q | 2.48
V11T | 2.04
V11A | 2.25
V11R | 3.19
V11M | 2.26
V11C | 1.49
V11G | 2.19
V11P | 2.54
V11N | 2.49
V11S | 1.93
V11K | 2.11
V11H | 1.83
V11F | 1.81
V11D | 2.42

Variants of: B2
Experiment: as above
Details: c terminus: a fixed tail appended

Variant | protein stability index
L1M | 2.57
L1N | 4.18
L1D | 4.96
L1I | 1.04
L1G | 4.46
L1Y | 2.31
L1R | 4.01
L1V | 2.71
L1A | 3.26
L1E | 4.58
L1C | 2.95
L1H | 4.33
L1S | 3.65
L1T | 3.33
L1K | 3.67
L1F | 2.06
L3A | 3.65
L3C | 2.57
Q2P | 3.18
Q2M | 3.19
Q2D | 2.84
Q2C | 1.04
Q2E | 3.58
Q2T | 1.61
Q2A | 3.5
Q2G | 1.74
Q2I | 2.81
Q2N | 2.41
